In US20180055768:

Tested on: HA-tagged wt ARRDC1

Sequence of GFP-tagged WWP2 (chain, as listed by the source): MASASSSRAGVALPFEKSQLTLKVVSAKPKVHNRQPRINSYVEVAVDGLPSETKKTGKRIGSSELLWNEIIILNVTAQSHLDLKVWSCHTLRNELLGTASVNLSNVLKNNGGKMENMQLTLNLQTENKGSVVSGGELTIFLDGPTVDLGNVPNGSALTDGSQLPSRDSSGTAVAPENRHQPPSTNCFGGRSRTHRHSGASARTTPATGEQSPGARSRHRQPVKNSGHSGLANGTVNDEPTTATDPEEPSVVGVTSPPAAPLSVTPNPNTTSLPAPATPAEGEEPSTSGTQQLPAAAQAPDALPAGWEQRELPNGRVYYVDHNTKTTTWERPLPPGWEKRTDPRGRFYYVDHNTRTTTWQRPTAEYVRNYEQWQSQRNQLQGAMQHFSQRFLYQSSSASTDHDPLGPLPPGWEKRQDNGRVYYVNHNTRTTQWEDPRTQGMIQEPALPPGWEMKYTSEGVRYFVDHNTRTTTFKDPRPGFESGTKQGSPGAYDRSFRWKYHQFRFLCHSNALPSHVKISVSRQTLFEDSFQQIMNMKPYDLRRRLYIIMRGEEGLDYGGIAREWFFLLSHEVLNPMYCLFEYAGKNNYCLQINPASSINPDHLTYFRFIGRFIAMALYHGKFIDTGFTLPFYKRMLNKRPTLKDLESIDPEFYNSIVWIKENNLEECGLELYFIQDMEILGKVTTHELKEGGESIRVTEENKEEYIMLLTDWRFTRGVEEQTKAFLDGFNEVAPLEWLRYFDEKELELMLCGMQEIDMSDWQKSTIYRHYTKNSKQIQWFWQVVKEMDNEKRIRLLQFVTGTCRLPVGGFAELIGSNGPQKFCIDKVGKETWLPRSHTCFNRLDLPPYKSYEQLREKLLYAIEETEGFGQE

## GFP-tagged WWP2
  ubiquitination of ARRDC1 (immunoblot of WCEs and ARMMs): ubiquitination of ARRDC1 was enhanced by WWP2
